From paper PMC3643951 (PLoS ONE, 2013)
Changes are numbered by the printed parent chain. Names may count otherwise.

B1: TRPC6(801–878) K856A (domain or fragment, rat, UniProt Q99N78 801-878, looked up)
chain: NKRNEEKKFGILGSHEDLSKFSLDRNQLAHNKQSSTRSSEDFHLNSFSNPPRQYQAIMKRLIKRYVLQAQIDKESDEV
notes: C-terminal part of rat TRPC6, amino acids 801-878, with K856A; Same construct as m1 (pET42b) with the point mutation; source: E. coli Rosetta, purified (Chelating Sepharose Fast Flow, Superdex 75)
B2: TRPC6(801–878) K859A/R860A/R864A (domain or fragment, rat, UniProt Q99N78 801-878, looked up)
chain: B1 chain with A56K, K59A, R60A, R64A
notes: C-terminal part of rat TRPC6, amino acids 801-878, with K859A, R860A and R864A; Same construct as m1 (pET42b) with the triple substitution; also called triple substitution Lys859/Arg860/Arg864; source: E. coli Rosetta, purified (Chelating Sepharose Fast Flow, Superdex 75)
B3: TRPC6(801–878) R852A (domain or fragment, rat, UniProt Q99N78 801-878, looked up)
chain: B1 chain with R52A, A56K
notes: C-terminal part of rat TRPC6, amino acids 801-878, with R852A; Same construct as m1 (pET42b) with the point mutation; also called TRPC6 single mutant R852A; source: E. coli Rosetta, purified (Chelating Sepharose Fast Flow, Superdex 75)
B4: TRPC6(801–878) R864A (domain or fragment, rat, UniProt Q99N78 801-878, looked up)
chain: B1 chain with A56K, R64A
notes: C-terminal part of rat TRPC6, amino acids 801-878, with R864A; Same construct as m1 (pET42b) with the point mutation; source: E. coli Rosetta, purified (Chelating Sepharose Fast Flow, Superdex 75)
B5: TRPC6(801–878) R852A/K859A/R860A (domain or fragment, rat, UniProt Q99N78 801-878, looked up)
chain: B1 chain with R52A, A56K, K59A, R60A
notes: C-terminal part of rat TRPC6, amino acids 801-878, with R852A, K859A and R860A; Same construct as m1 (pET42b) with the triple substitution; also called triple mutation Arg852/Lys859/Arg860; source: E. coli Rosetta, purified (Chelating Sepharose Fast Flow, Superdex 75)

Target: T1, S100A1 protein, dansyl-labelled (human, UniProt P23297 1-94, dansyl (DNS) label from dansyl chloride, site not stated)
T1 construct: human S100A1; cDNA cloned into pET28b; No tag is mentioned; purification was by Phenyl Sepharose; also called DNS-S100A1; Ca2+-S100A1; source: E. coli BL21, purified (Phenyl Sepharose CL4B, Superdex 75), labelled with dansyl chloride
T1 sequence (looked up): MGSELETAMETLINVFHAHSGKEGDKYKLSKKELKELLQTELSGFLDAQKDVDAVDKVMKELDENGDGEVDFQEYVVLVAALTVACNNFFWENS
Test: fluorescence polarisation; steady-state fluorescence anisotropy; TRPC6 construct titrated into DNS-S100A1 solution (232 µM as printed) in presence of calcium ions; excitation 340 nm, emission 520 nm
Conditions: both partners purified

| Binder | Kd [nM] |
| --- | --- |
| B1 | 760 |
| B2 | 400 |
| B3 | 480 |
| B4 | 920 |
| B5 | 2620 |
